Reference: patent publication US9371519B2, “Complex type sugar chain hydrolase” (National Institute of Advanced Industrial Science and …, priority 2011, dated 2016)

B1: Endo-Pa: endo-β-N-acetylglucosaminidase from Pichia anomala ATCC36904, amino acid sequence SEQ ID NO. 9, 656 amino acids (protein, listed as Pichia anomala)
chain: MQHDHAAIKFEEDSISSQRFSSLDEVEKWYNTKNRSPLDDLRIPRESLSHYNRFRDNNDEIKVLVCHDFKGNYQEGEDENPLGYFPHSSGQHYFIQFPSLVDLFIFFSHYKIAVPPVSWINSLHRQGIPVLGTLIFEGTDVSESDKLLEKNENGDFKYLEILCELVRHYGFDGWLVNMESHFSSVAKAQDLLLFDEALRSTLHLKVPGSKLIWYDSLITQKNRVFYQNAVNEWNYDHFSTSDLFFTNYWWNEEDLKRNILNIGLQGVKQKLFVGVDIWGRGSRIGNGGFESGLAINYLKRYSTNVALFAPAWTYENFEEDQFLIKDRKFWIGDQTSDETGGSVATYVSHYTTPVYVKDQNVKFYTNFSVGEGTKYRVFAHTVFKNNWVNGNLQLPTPIIDNEKRIDIYYKESFNGGSSLKVTQRNSILNDGKSNILQLFSFKNDIHSNNLNVSVSFKYLSEIPLNSTFQLEIKFYIERRYRSVTRVRDGTFKLPLAFSNKNWKYIETSFALPRLQIREHFVLEGLQIRWVDNVDELSSSIGTSGDFTESWIIVPQNSDPNAVYELLIGDLLVEGIKTANGNIDAVTKLSRKITLDSRSILATWKDDTEVLYWIIYVNAKFLGIAHKSLWRVQRGDKLRVDVFTRSGKLVKGEDIFI
B2: Endo-Om: endo-β-N-acetylglucosaminidase from methylotrophic yeast Ogataea minuta IFO10746, amino acid sequence SEQ ID NO. 1, 772 amino acids (protein, listed as Ogataea minuta)
chain: MAQSQLLGGAVRPVFFDKLEELRRWHTQSANLSRESELDSLNVATEPFSSYERAQTGSGSRSSEPVPGDKEDPPIKLMVCHDFKGGYQDYEDAQPLGYFPHPTGSRYFLQYPQLIDQFVYFSHHRVTVPPVNWINFCHRNGIKCFGTVIFEGNASKDFEELDRLVSRDEKGDFVFVDALIKLAAHYGFDGYLLNIETTFSNTKIAADLEPFAEQLKSGLHCLDSKNELIWYDSYVFPANKVSYTNGVTESNYNFFSLSDAFFSNYWWNIKNLQENIKNVGVLGVQKKIYVGYDVWGRGTLVGKGGFDSSLACKMIAKFKSNVALFAPAWTYESLGPKDFNQNDARFWIGLFENESSISSTVPPHSSAVYKINESSFIFYTNFSSGEGNRFFSKGSEVYRKNWVNGSLQFDLPIDLHRKDKNGLQWALDKSDAFHGGACLEIKYSEIKDENGYQIFNNQMVSDFTLFNFTKECHFPTVNVKVTYKLNHKTKSTFKIKIKYIIERRFRSVQTVRTGYLTIPLLSTSGKWFTVEESFQINLQTSHEYIVLESAHVTYDEDRSADSFFRSYIVEDSAITSVIDNEEYEKLINSEIYNDDEDEDWILVPSDVSISSSESQSNDSKTQYLGRKLFGNKSTPKTRTLEGTAPLLRIGEFAIISANNYPSSNFLAVTSVKSIESSRLEGDSLVLLNWQVGEGHQKGVCYYIIYVNGAVVGLSVAPKFIYQDTELASENSASARSNYKKSGLGSSSDRKSKVRVDSVDKLGNVFTGSEVWV
B3: Endo-Zr: endo-β-N-acetylglucosaminidase from Zygosaccharomyces rouxii ATCC2623, amino acid sequence SEQ ID NO. 13, 639 amino acids (protein, listed as Zygosaccharomyces rouxii)
chain: MKRINQVPGKPEITSLYFDDLNSLQRWFDKGFMDSRDLSNVPKERYSNYVKFEKDSIITIPNLSARKTEIIVCHDFKGGYQSGHDLYPNGQYGTESCKPYSLRYPEIVDKFVYFSHHCVTIPPSPWTNYLHRHSIPVLGTLILEHYPHNGELFKKNAKGEFLYVKYLVELCRKFHFEGWLINFETVFGNNSKQVIPFLRELTARVECEIYGGSVIWYDAFTTFSNKPSHQNEVNLFNYDAYENSSQFMTNYMWDSHNVGNSLRNVGALGMHSHVALGVDVWGRNMQVCRGGFESNIAIYYAKRFGTNAVIFAPGWTYENFGEDQFYEKDDIFWGNIKSTLQLDSYSDSQLSSWFVSESKKTRYFTTFFSTGSGNFFNLNGRRISNDNWVQLGLSTPFPVNSHSYLSFKDSFVGGSCLALPLSPMENGKLHLFRFEQFIKDQQKTSDSEIRVKLSYKSLGALPPVKLVIKCFVIRRGKRSKTILKVDDVSLVLPLSHSACQTAQGSTKWAVVEQIVPLPSLESRFLEEYYVEDAHLEWTMDNNHDEWLMVPERTEDLDCKLLIGSLCLEIGPHEDNNKRQIVRNGPQLSWQDNESSFMWLKLQDGKLDSVLFTPTTKVNGKQPTILECGRNGTLKFVVKK
B4: Endo-Cp: endo-β-N-acetylglucosaminidase from Candida parapolymorpha DL-1 ATCC26012, amino acid sequence SEQ ID NO. 5, 745 amino acids (protein, listed as Candida parapolymorpha)
chain: MPRNTAKHSSLPQTNLPLSSLESSFFDSLDELANWERRIHEKSFELDELNKPTEKLAHYTRARQQSTSEDVKLLVCHDLKGGYQVNEDEDPLGYFPHPDGQHYFLQYPQLVDKFVYFSHHRVSIPPVSWINVCHRNAIKCLGTVIFEGNTYRDFEEADKLLTKQDGEYVFVRCLVALVEYFQFDGYLFNIETRFSNTRIASLLEPFLEQLRAELHVRNPSTELIWYDSYIYPENRVLYKNGVTEANYNFFSCCDSFFTNYWWNVKHLQDNIKNVGVLGSRLKVYAGYDVWGRGTMIGKGGYDSALACQMIKKYRSNVALFAPAWTYEYLARKDFTQNDTRFWIGLFDGESSMATTFKPYSSPLYKINDSNFVFYTNFGSGEGCAFYECGEKVYRDNWVNGSLQMEIPYAIHTRNKNGIQWTLSKEDSFHGGSCVEIKYNEVVDDKGYQVFNNQTINSFSLFSFVQDCSFPTVNVKLTYKLNHKTKSFFKLKIGYYIERRYRTVQKVRSGCLVVPLLSTNDQWFTIEEPFHVSLQNSHEFIVLDSATIFYEETEDPFMRAHVVEDQSTSSVIDNEEYEKLMNSEIYFDDEDEDWILVPSDISMESTDNGGRENHTWKVISNQIRKKHPKSHPSTSPVLKLGELAIINANDYPSDSFFKLMPVNSIDVRRWEGKILLIWKTNQDSVLYHLIFVDDVFQGISLVSKFVFEDQAVDEKSFKTKSGGSTKVRIDTVNRLGILVKGTDM

Assay: Study of optimal reaction conditions (pH and temperature)
Type: biochemical
Details: 10 μM NGA2-Asn-Fmoc; buffers pH 3.5-9.0
Experimental: Study of the optimal reaction pH for Endo-Om was carried out as follows. A reaction solution containing any of various buffers having a final concentration of 100 mM, 0.5 M of NaCl, 10 μM of NGA2-Asn-Fmoc, and an Endo-Om purified enzyme solution (total volume: 10 μl) was incubated at 50° C. for 1 hour, and heated at 95° C. for 5 minutes, thereby stopping the enzyme reaction. The buffers used herein were a sodium citrate buffer (pH 3.5-5.5), a sodium acetate buffer (pH 4.5-6.0), a sodium phosphate buffer (pH 6.0-7.5), a MOPS-NaOH buffer (pH 6.5-8.0), and a Tris-HCl buffer (pH 8.0-9.0). The reaction solution was subjected to HPLC by the method described in Example 4, and the enzymatic activity was calculated. The optimal reaction temperature was studied by changing the reaction temperature in the activity measurement method described in Example 4 in the range of 10° C. to 60° C.
(§1) Study of the optimal reaction pH for Endo-Cp was carried out as follows. A reaction solution containing any of various buffers having a final concentration of 100 mM, 0.5 M of NaCl, 10 μM of NGA2-Asn-Fmoc, and an Endo-Cp partially purified enzyme solution (total volume: 10 μl) was incubated at 30° C. for 3 hours, and heated at 95° C. for 5 minutes, thereby stopping the enzyme reaction. The buffers used herein were a sodium citrate buffer (pH 3.5-5.5), a sodium acetate buffer (pH 4.5-6.0), a sodium phosphate buffer (pH 6.0-7.5), a MOPS-NaOH buffer (pH 6.5-8.0), and a Tris-HCl buffer (pH 8.0-9.0). The reaction solution was subjected to HPLC by the method described in Example 8, and the enzymatic activity was calculated. The optimal reaction temperature was studied by changing the reaction temperature in the activity measurement method described in Example 8 in the range of 10° C. to 70° C.
as §1, with “Endo-Pa” for “Endo-Cp”, “12,” for “8,”, “The optimal reaction temperature was studied by changing the reaction temperature in the activity measurement method described in Example 8 in the range of 10° C. to 70° C.” left out
Study of the optimal reaction pH for Endo-Zr was carried out as follows. […] The reaction solution was subjected to HPLC by the method described in Example 16, and the enzymatic activity was calculated. […]

Molecule	Optimal pH (optimal reaction pH)
B1	5.0-5.5
B2	about 5.5
B3	4.5-5.0
B4	about 5.5
